Measured values from US8349583B2, “Distinguishing cells in a sample by inactivating extracellular enzyme before releasing intracellular enzyme” (priority 2005, dated 2013).

Key:
[1] = tested on: bacterial adenylate kinase; assay: AK reduction by different proteases over time for different organisms; assay type: biochemical; conditions: 37° C., 10 to 120 minutes; trypsin 1000, papain 10, proteinase K 2.5, chymotrypsin 1 U/ml
Method: • 1. Bacteria were scraped from plates and inoculated in approximately 20 ml of broth only. These were incubated overnight at 37° C. • 2. 10× stocks of the enzymes were prepared in broth only: • a. 10 mg of 16,000 U/mg Trypsin added to 16 ml of broth to give 10,000 U/ml (10×) stock. • b. 25 mg of 4 U/mg Papain added to 1 ml of broth to give 100 U/ml (10×) stock. • c. 10 mg of 7.5 U/mg proteinase K added to 3 ml of broth to give a 25 U/ml (10×) stock. • d. 10.5 ul of 239 U/ml chymotrypsin added to 239.5 ul of broth to give a 10 U/ml stock. • 3. The inoculums were then centrifuged at approximately 14030 RCF for one hour. • 4. The supernatant was then taken, tested for adenylate kinase activity (described below), and diluted with broth only if needed to give about 10^5 cpm/ml. • 5. The supernatant was then assayed for adenylate kinase activity at time point zero in triplicate and averaged. • 6. 1.5 ml solutions of the supernatants were prepared with the correct concentration of enzyme, or broth for control. These were incubated at 37° C. • 7. Samples were then taken and assayed in triplicate for adenylate kinase activity at 10, 30, 60 and 120 minutes. • 8. The triplicates were averaged, and normalised by dividing by the time point zero average. Adenylate Kinase Assay (AK Only No Cells) • 1. […] added to a cuvette. • 2. 50 μl of reagent 1 (ADP only; no lysis agent) added and vortexed briefly. • 3. After 5 minutes, the cuvette was placed into a luminometer. • 4. 50 μl of reagent 2 (dilution and luciferin/luciferase) firmly added directly to the sample. • 5. RLU read immediately.
The results are shown in FIG. 19 (S. epidermis), 20 (S. aureus), 21 (E. coli), 22 (E. faecalis), 23 (P. aeruginosa) and 24 (MRSA). Trypsin is still the protease of choice due to its consistency with both Gram +ve and Gram −ve bacteria.

E. faecalis [2] = assay: Trypsin digestion of intracellular bacterial AK, E. faecalis; assay type: cell-based; conditions: assayed immediately
Method: (§1) Experimental work used adenylate kinase-generated ATP to drive a luciferin/luciferase activity, giving results in RLUs as a quantitative measure of initial ATP levels. All AK assays were performed at pH 7.5, and 37° C. Results of the assay were read at ambient temperature.
(§2) Concentrations of 10^4 and 10^5 cfu/ml E. coli and E. faecalis where spiked into MH broth containing 1000, 200 and 0 (control) U/ml trypsin. These were assayed immediately.

AK in lysed blood = assay: AK reduction by trypsin over time, saponin-lysed blood; assay type: biochemical; conditions: 10^−3 dilution of lysed blood, 5000, 1000, 200 U/ml trypsin, 37° C., up to 1 hour
Method: (§3) Purified AK (B. stearothermophilus) or a 10^−3 dilution of saponin-lysed blood was incubated for 1 hour at 37° C. in 5000, 1000, 200 and 0 (control) U/ml trypsin diluted in MH broth (‘trypsin/MH’). Aliquots were assayed at time 0, 15 minutes, 30 minutes and 1 hour.

[3] = tested on: lysed blood AK background; assay: Lysed blood background with trypsin, negative (no organisms); assay type: biochemical; conditions: 10^−1 lysed blood, 1000 U/ml trypsin
Method: (§4) Approximately 10^2 cfu/ml organisms were spiked into a 10^−1 dilution of lysed blood in MH, containing 1000 U/ml trypsin. This was incubated at 37° C. for 4 hours, and aliquots were assayed at time 0, 1, 2, 3 and 4 hours.

[4] = tested on: AK in saponin-lysed blood; assay: Trypsin digestion of AK in various concentrations of lysed blood; assay type: biochemical; conditions: 1000 U/ml trypsin
Method: Saponin-lysed blood was serially diluted and mixed with 1000 or 200 U/ml trypsin/MH. The mixtures were incubated at 37° C. for 4 hours, and aliquots assayed at time 0, 1, 2, 3 and 4 hours.

E. coli [5] = assay: Trypsin digestion of intracellular bacterial AK, E. coli; assay type: cell-based; conditions: for Mean RLU: assayed immediately
Method: as §1, §2

P. aeruginosa = assay: Organism growth against lysed blood background using trypsin, P. aeruginosa; assay type: cell-based; conditions: P. aeruginosa 10^2 cfu/ml, 10^−1 lysed blood, 1000 U/ml trypsin
Method: as §4

E. coli [6] = assay: Organism growth against lysed blood background using trypsin, E. coli; assay type: cell-based; conditions: E. coli 10^2 cfu/ml, 10^−1 lysed blood, 1000 U/ml trypsin
Method: as §4

E. faecalis [7] = assay: Organism growth against lysed blood background using trypsin, E. faecalis; assay type: cell-based; conditions: E. faecalis 10^2 cfu/ml, 10^−1 lysed blood, 1000 U/ml trypsin
Method: as §4

[8] = target: Purified AK (B. stearothermophilus) (Geobacillus stearothermophilus, UniProt P27142); assay: AK reduction by trypsin over time, purified bacterial AK; assay type: biochemical; conditions: 5000, 1000, 200 U/ml trypsin, 37° C., up to 1 hour; compared with lysed blood AK
Purified AK (B. stearothermophilus), sequence (P27142 whole entry): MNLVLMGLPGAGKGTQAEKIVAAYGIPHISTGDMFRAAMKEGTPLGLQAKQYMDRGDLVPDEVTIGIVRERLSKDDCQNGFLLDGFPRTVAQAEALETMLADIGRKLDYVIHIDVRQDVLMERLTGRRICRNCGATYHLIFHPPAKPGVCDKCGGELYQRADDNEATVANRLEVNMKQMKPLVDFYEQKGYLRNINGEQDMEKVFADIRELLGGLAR
Method: as §3

organisms (11 species) = assay: Effect of trypsin on organisms (bacterial growth); assay type: cell-based; conditions: trypsin 1000 and 200 U/ml, 10^3 cfu/ml, 37° C., 3 hours
Method: FIGS. 4 to 14 show bacterial growth in the presence of AK. Bacteria were: (4) E. coli; (5) E. faecalis; (6) P. aeruginosa; (7) S. aureus; (8) K. pneumoniae; (9) E. cloacae; (10) K. oxytoca; (11) P. vulgaris; (12) A. baumanii; (13) S. enteritidis; and (14) S. narcescens.
To assess whether trypsin affects bacterial growth, 10^3 cfu/ml organisms were spiked into 1000, 200 and 0 (control) U/ml trypsin/MH samples. These mixtures were incubated at 37° C. for 3 hours, and aliquots were assayed at time 0, 1, 2 and 3 hours.

[9] = target: bioluminescent system (luciferin/luciferase) (Photinus pyralis, UniProt P08659); assay: Trypsin control: effect of trypsin on the bioluminescent system; assay type: biochemical
bioluminescent system (luciferin/luciferase), sequence (P08659 whole entry): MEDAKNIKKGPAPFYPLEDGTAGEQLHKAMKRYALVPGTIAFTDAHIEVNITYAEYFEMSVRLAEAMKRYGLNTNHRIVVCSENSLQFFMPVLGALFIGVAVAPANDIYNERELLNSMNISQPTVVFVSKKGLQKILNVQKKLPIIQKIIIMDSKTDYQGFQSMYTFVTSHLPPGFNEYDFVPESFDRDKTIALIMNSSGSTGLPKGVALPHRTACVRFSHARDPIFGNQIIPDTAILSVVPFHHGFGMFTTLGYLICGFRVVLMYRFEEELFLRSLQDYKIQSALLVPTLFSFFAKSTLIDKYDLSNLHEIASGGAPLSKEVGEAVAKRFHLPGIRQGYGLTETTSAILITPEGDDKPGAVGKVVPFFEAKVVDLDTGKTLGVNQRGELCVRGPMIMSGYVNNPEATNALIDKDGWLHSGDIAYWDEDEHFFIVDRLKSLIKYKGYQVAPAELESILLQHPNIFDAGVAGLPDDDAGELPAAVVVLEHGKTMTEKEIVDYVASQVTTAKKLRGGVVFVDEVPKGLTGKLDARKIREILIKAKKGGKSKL
Method: as §1
In preliminary experiments, the effect of trypsin on the bioluminescent system was assessed. Samples of trypsin at different concentrations, diluted in Mueller-Hinton (MH^+) broth, were spiked with ATP.

B1: trypsin (protein, UniProt P00761 9-231, looked up)
Trypsin: IVGGYTCAANSIPYQVSLNSGSHFCGGSLINSQWVVSAAHCYKSRIQVRLGEHNIDVLEGNEQFINAAKIITHPNFNGNTLDNDIMLIKLSSPATLNSRVATVSLPRSCAAAGTECLISGWGNTKSSGSSYPSLLQCLKAPVLSDSSCKSSYPGQITGNMICVGFLEGGKDSCQGDSGGPVVCNGQLQGIVSWGYGCAQKNKPGVYTKVCNYVNWIQQTIAAN
degradation of AK extracted from different organisms [1]: degraded the AK
Mean RLU (E. faecalis [2]; E. faecalis 10^4 cfu/ml, trypsin 200 U/ml): 13,310 RLU
Mean RLU (E. faecalis [2]; E. faecalis 10^4 cfu/ml, trypsin 1000 U/ml): 17,369 RLU
Mean RLU (E. faecalis [2]; E. faecalis 10^5 cfu/ml, trypsin 200 U/ml): 87,059 RLU
Mean RLU (E. faecalis [2]; E. faecalis 10^5 cfu/ml, trypsin 1000 U/ml): 103,959 RLU
digestion of AK in lysed blood by trypsin (AK in lysed blood): digested rapidly
Mean RLU ([3]; 1 hr): 7,864 RLU
Mean RLU ([3]; 2 hrs): 3,148 RLU
Mean RLU ([3]; 3 hrs): 2,001 RLU
Mean RLU ([3]; 4 hrs): 1,572 RLU
Mean RLU ([3]; Time 0): overload
reduction of background ([4]; 10^−1 dilution of blood, 4 hours): 25,000 fold
background RLU after trypsin digestion ([4]; 10^−1 dilution of blood, 4 hours, from approximately 100 million RLU): 4,000 RLU
time in which the vast majority of AK digestion occurs [4]: ≤ 2 h
Mean RLU (E. coli [5]; E. coli 10^4 cfu/ml, trypsin 200 U/ml): 7,197 RLU
Mean RLU (E. coli [5]; E. coli 10^4 cfu/ml, trypsin 1000 U/ml): 12,694 RLU
Mean RLU (E. coli [5]; E. coli 10^5 cfu/ml, trypsin 200 U/ml): 65,452 RLU
Mean RLU (E. coli [5]; E. coli 10^5 cfu/ml, trypsin 1000 U/ml): 106,552 RLU
AK signal from lysed bacteria lost during the AK reaction due to trypsin digestion (E. coli [5]; E. coli and E. faecalis, trypsin 200 and 1000 U/ml): 10-20%
Mean RLU (P. aeruginosa; 1 hr): 8,852 RLU
Mean RLU (P. aeruginosa; 2 hrs): 3,582 RLU
Mean RLU (P. aeruginosa; 3 hrs): 3,332 RLU
Mean RLU (P. aeruginosa; 4 hrs): 8,123 RLU
Mean RLU (P. aeruginosa; Time 0): overload
Mean RLU (E. coli [6]; 1 hr): 9,605 RLU
Mean RLU (E. coli [6]; 2 hrs): 7,460 RLU
Mean RLU (E. coli [6]; 3 hrs): 41,121 RLU
Mean RLU (E. coli [6]; 4 hrs): 353,541 RLU
Mean RLU (E. coli [6]; Time 0): overload
Mean RLU (E. faecalis [7]; 1 hr): 10,099 RLU
Mean RLU (E. faecalis [7]; 2 hrs): 4,939 RLU
Mean RLU (E. faecalis [7]; 3 hrs): 15,587 RLU
Mean RLU (E. faecalis [7]; 4 hrs): 106,762 RLU
Mean RLU (E. faecalis [7]; Time 0): overload
degradation of purified bacterial AK by trypsin [8]: does not occur as dramatically or rapidly as the AK from lysed blood
effect on bacterial growth (organisms (11 species)): minimal (if any) effect on the organisms
Mean RLU ([9]; +ATP, trypsin 200 U/ml in MH broth): 68,036 RLU
Mean RLU ([9]; +ATP, trypsin 1000 U/ml in MH broth): 64,005 RLU
Mean RLU ([9]; +ATP, trypsin 5000 U/ml in MH broth): 81,276 RLU
Mean RLU ([9]; No ATP, trypsin 200 U/ml in MH broth): 646 RLU
Mean RLU ([9]; No ATP, trypsin 1000 U/ml in MH broth): 538 RLU
Mean RLU ([9]; No ATP, trypsin 5000 U/ml in MH broth): 414 RLU
background ATP-generating activity associated with trypsin ([9]; no ATP): little or no background ATP-generating activity
effect on bioluminescence signal ([9]; trypsin 5000 U/ml): boosted
effect on the bioluminescence reaction ([9]; trypsin levels ≦1000 U/ml): minimal/no effect on the bioluminescence reaction

B2: Papain (protein, UniProt P00784 134-345, looked up)
Papain: IPEYVDWRQKGAVTPVKNQGSCGSCWAFSAVVTIEGIIKIRTGNLNEYSEQELLDCDRRSYGCNGGYPWSALQLVAQYGIHYRNTYPYEGVQRYCRSREKGPYAAKTDGVRQVQPYNEGALLYSIANQPVSVVLEAAGKDFQLYRGGIFVGPCGNKVDHAVAAVGYGPNYILIKNSWGTGWGENGYIRIKRGTGNSYGVCGLYTSSFYPVKN
notes: protease, 4 U/mg, used at 10 U/ml
degradation of AK extracted from different organisms [1]: degraded the AK in a similar manner to trypsin

B3: proteinase K (protein, UniProt P06873 106-384, looked up)
Proteinase K: AAQTNAPWGLARISSTSPGTSTYYYDESAGQGSCVYVIDTGIEASHPEFEGRAQMVKTYYYSSRDGNGHGTHCAGTVGSRTYGVAKKTQLFGVKVLDDNGSGQYSTIIAGMDFVASDKNNRNCPKGVVASLSLGGGYSSSVNSAAARLQSSGVMVAVAAGNNNADARNYSPASEPSVCTVGASDRYDRRSSFSNYGSVLDIFGPGTSILSTWIGGSTRSISGTSMATPHVAGLAAYLMTLGKTTAASACRYIADTANKGDLSNIPFGTVNLLAYNNYQA
notes: protease, 7.5 U/mg, used at 2.5 U/ml
degradation of AK extracted from different organisms [1]: degraded the AK in a similar manner to trypsin
